From US20120034160A1 (AbbVie / Abbott, published 2012)

Columns and labels:
[1] = biological target: Recombinant Human IL-1β (human, UniProt P01584 117-269); assay: cell-based or functional assay
[2] = biological target: T1, Recombinant Human IL-17 (human, UniProt Q16552 20-155, limits assumed); assay: cell-based or functional assay
T1 sequence (looked up): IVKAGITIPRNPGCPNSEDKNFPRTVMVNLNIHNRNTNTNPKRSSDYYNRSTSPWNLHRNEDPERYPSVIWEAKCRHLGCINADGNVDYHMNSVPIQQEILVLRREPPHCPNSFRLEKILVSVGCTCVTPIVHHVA

B1: DVD1602 (bispecific antibody, human IgG1, kappa)
heavy: not shown
light: EIVLTQSPDFQSVTPKEKVTITCRASQDIGSELHWYQQKPDQPPKLLIKYASHSTSGVPSRFSGSGSGTDFTLTINGLEAEDAGTYYCHQTDSLPYTFGPGTKVDIKRTVAAPSVFIFPPDIQMTQSPSSLSASVGDRVTITCRASGNIHNYLTWYQQTPGKAPKLLIYNAKTLADGVPSRFSGSGSGTDYTFTISSLQPEDIATYYCQHFWSIPYTFGQGTKLQITRTVAAPSVFIFPPSDEQLKSGTASVVCLLNNFYPREAKVQWKVDNALQSGNSQESVTEQDSKDSTYSLSSTLTLSKADYEKHKVYACEVTHQGLSSPVTKSFNRGEC
[1]
  C-Terminal VD IL-1β Neutralization Assay EC50: 133 pM
[2]
  N-terminal VD IL-17 Neutralization Assay EC50: 3.3 pM

B2: DVD1605 (bispecific antibody, human IgG1, kappa)
heavy: not shown
light: DTVVTQSPAFLSVTPGEKVTITCITSTDIDVDMNWYQQKPDQPPKLLISQGNTLRPGVPSRFSSSGSGTDFTFTISSLEAEDAATYYCLQSDNLPLTFGQGTKLEIKRTVAAPSVFIFPPEIVLTQSPDFQSVTPKEKVTITCRASQDIGSELHWYQQKPDQPPKLLIKYASHSTSGVPSRFSGSGSGTDFTLTINGLEAEDAGTYYCHQTDSLPYTFGPGTKVDIKRTVAAPSVFIFPPSDEQLKSGTASVVCLLNNFYPREAKVQWKVDNALQSGNSQESVTEQDSKDSTYSLSSTLTLSKADYEKHKVYACEVTHQGLSSPVTKSFNRGEC
[1]
  N-Terminal VD IL-1β Neutralization Assay EC50: 242 pM
[2]
  C-terminal VD IL-17 Neutralization Assay EC50: 8.2 pM

B3: DVD1601 (bispecific antibody, human IgG1, kappa)
heavy: not shown
light: DIQMTQSPSSLSASVGDRVTITCRASGNIHNYLTWYQQTPGKAPKLLIYNAKTLADGVPSRFSGSGSGTDYTFTISSLQPEDIATYYCQHFWSIPYTFGQGTKLQITRTVAAPSVFIFPPEIVLTQSPDFQSVTPKEKVTITCRASQDIGSELHWYQQKPDQPPKLLIKYASHSTSGVPSRFSGSGSGTDFTLTINGLEAEDAGTYYCHQTDSLPYTFGPGTKVDIKRTVAAPSVFIFPPSDEQLKSGTASVVCLLNNFYPREAKVQWKVDNALQSGNSQESVTEQDSKDSTYSLSSTLTLSKADYEKHKVYACEVTHQGLSSPVTKSFNRGEC
[1]
  N-Terminal VD IL-1β Neutralization Assay EC50: 3.6 pM
[2]
  C-terminal VD IL-17 Neutralization Assay EC50: 26.4 pM

B4: DVD1603 (bispecific antibody, human IgG1, kappa)
heavy: not shown
light: DTQVTQSPSSLSASVGDRVTITCITSTDIDVDMNWYQQKPGKPPKLLISQGNTLRPGVPSRFSSSGSGTDFTFTISSLQPEDFATYYCLQSDNLPLTFGQGTKLEIKRTVAAPSVFIFPPEIVLTQSPDFQSVTPKEKVTITCRASQDIGSELHWYQQKPDQPPKLLIKYASHSTSGVPSRFSGSGSGTDFTLTINGLEAEDAGTYYCHQTDSLPYTFGPGTKVDIKRTVAAPSVFIFPPSDEQLKSGTASVVCLLNNFYPREAKVQWKVDNALQSGNSQESVTEQDSKDSTYSLSSTLTLSKADYEKHKVYACEVTHQGLSSPVTKSFNRGEC
[1]
  N-Terminal VD IL-1β Neutralization Assay EC50: 80.3 pM
[2]
  C-terminal VD IL-17 Neutralization Assay EC50: 40.7 pM

B5: DVD1604 (bispecific antibody, human IgG1, kappa)
heavy: not shown
light: EIVLTQSPDFQSVTPKEKVTITCRASQDIGSELHWYQQKPDQPPKLLIKYASHSTSGVPSRFSGSGSGTDFTLTINGLEAEDAGTYYCHQTDSLPYTFGPGTKVDIKRTVAAPSVFIFPPDTQVTQSPSSLSASVGDRVTITCITSTDIDVDMNWYQQKPGKPPKLLISQGNTLRPGVPSRFSSSGSGTDFTFTISSLQPEDFATYYCLQSDNLPLTFGQGTKLEIKRTVAAPSVFIFPPSDEQLKSGTASVVCLLNNFYPREAKVQWKVDNALQSGNSQESVTEQDSKDSTYSLSSTLTLSKADYEKHKVYACEVTHQGLSSPVTKSFNRGEC
[1]
  C-Terminal VD IL-1β Neutralization Assay EC50: 2030 pM
[2]
  N-terminal VD IL-17 Neutralization Assay EC50: 3.1 pM
